The source of these data is PMC9887155, “Kinetics of cone specific G-protein signaling in avian photoreceptor cells” (Frontiers in Molecular Neuroscience, 2023).

Where “and” joins values, the source holds several entries; their conditions need not be identical. Equal entries are not always repeated. Where two headings read alike, the source gives them in different places. Ends that are not written are not given here.

Broadly, the koff is the first-order rate constant of dissociation. Broadly, the kon is a measure of how fast the partners come together.

Assay [1] concerns the target Gtα/Giα with a C-terminus truncated by three amino acids (European robin (Erithacus rubecula)). The experiment in a line: SPR; Gt-3AA or Gt-6AA immobilised on CM5 (3.1–4.2 ng/mm^2); LWO2 injected at 120 nM (Gt-3AA) or 100 nM (Gt-6AA); global fit, Langmuir 1:1 model; apparent KD; three sets each.
Assay [2] deals with Gtα/Giα with a C-terminus truncated by six amino acids (European robin (Erithacus rubecula)). The assay is described as above.
Assay [3] addresses Gtα/Giα with a C-terminus truncated by three amino acids (European robin (Erithacus rubecula)). Described as above. This is another data set of the same source.
Assay [4] addresses Gtα/Giα with a C-terminus truncated by six amino acids (European robin (Erithacus rubecula)). Described as above. This is another data set of the same source.
For assay [5], the target named is Gtα/Giα chimera (α-subunit of the cone specific heterotrimeric G protein of European robin, chimera with Giα) (European robin (Erithacus rubecula)). The experiment in a line: SPR; kinetics: Gtα/Giα immobilised on CM5 (2.6–3.4 ng/mm^2); LWO2 injected at 5 to 150 nM in random order; global fit, Langmuir 1:1 model; apparent KD from kd/ka; 12 sets; same running buffer.

Assay [6] has the same target. Description: FRET or BRET; in solution: intrinsic Trp (excitation 280 nm) to dansyl on the peptide, emission 400–550 nm; peptide and Gtα/Giα each 16.7 μM; 80 mM Hepes pH 7.4, 40 mM KCl, 150 mM NaCl, 10 mM MgCl2, 10 μM GDP; 30 min on ice.

As to CGAGAWERWFVVCKPFGNIKFDGK-NH2 (cysteine pairing not given here) [peptide LWO2 (second cytoplasmic loop of long-wavelength-sensitive opsin of European robin)], the Kd in assay [1] is 8.7 nM; in assay [2], 50 nM; in assay [3] it was 7.3 nM; in assay [4], 34.5 nM; in assay [5], 15.1 nM and 21.4 nM and 3 to 41 nM. Further, the koff in assay [1] came to 0.000937 s⁻¹; in assay [2], 0.00093 s⁻¹; in assay [5], 0.000812 s⁻¹. In addition, the kon is 108000 M⁻¹ s⁻¹ in assay [1], 18600 M⁻¹ s⁻¹ in assay [2] and 53600 M⁻¹ s⁻¹ in assay [5].

In assay [6], CGAGAWERWFVVCKPFGNIKFDGK-NH2 (cysteine pairing not given here; also: dansyl coupled to free amino groups) [dansylated peptide LWO2] gave a decrease of dansyl fluorescence emission (FRET) on adding Gtα/Giα (relative fluorescence counts) of 14000.
